Broadly, the Kd is the concentration at which binding is half-saturated. Read a low Kd as a tighter complex.

The target in data set [1] is T1, PiCypA (cyclophilin A-like protein) (Piriformospora indica, UniProt C6KGV3 1-164). The data set is described as follows: ITC. On the technique in general: ITC needs no label: the signal is the heat of the interaction.
The target in data set [2] is T1, PiCypA (cyclophilin A-like protein). In words: ITC. This is another data set of the same source.

As to AUAGCCUCAACCG (ssRNA) [13 mer RNA], the Kd in data set [1] came out at 22.5 µM.

On to AAAAAAAAAAAAA (ssRNA) [13 mer poly-A RNA], for which the binding result in data set [2] is “no binding”.

The values are drawn from paper PMC3801112.
